Results taken from the supplement of paper PMC7125110.
± gives the standard error. For some assays here: This sample holds only a part of the variants without activity.

B1: glmS ribozyme (parent)
chain: AUAAAAGCGCCAGAACUACAGAAAUGUAGUUGACGAGGAGGAGGUUUAUCGAAUUUUCGGCGGAUGCCUCCAAA

Key:
Conditions in all cases: with glucosamine-6-phosphate
glucosamine-6-phosphate [1] = variants of: B1; assay: kcat; higher = faster cleavage; RNA array
Method in brief: (§1)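 kobs was derived by fitting per-tile medians to one- or two-exponential decays after normalising signals to baseline and to non-cleaving reference variants. Those signals came from barcoded ribozyme variants transcribed in situ by E. coli RNA polymerase on sequenced MiSeq chips, followed through a hybridised Cy3 probe at 37 °C and imaged over ~14 h. Glucosamine-6-phosphate (40 μM to 10 mM) in HEPES/KCl/Mg(OAc)2 buffer was flowed in. Weighted Michaelis–Menten fits across concentrations then gave kcat and KM.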

glucosamine-6-phosphate [2] = variants of: B1; assay: KM; higher = weaker cofactor use; RNA array
Method in brief: as §1

glucosamine-6-phosphate [3] = variants of: B1; assay: self-cleavage kobs at 40 uM GlcN6P; higher = faster cleavage; RNA array
Method in brief: as §1

glucosamine-6-phosphate [4] = variants of: B1; assay: self-cleavage kobs at 160 uM GlcN6P; higher = faster cleavage; RNA array
Method in brief: as §1

glucosamine-6-phosphate [5] = variants of: B1; assay: self-cleavage kobs at 640 uM GlcN6P; higher = faster cleavage; RNA array
Method in brief: as §1

glucosamine-6-phosphate [6] = variants of: B1; assay: self-cleavage kobs at 2500 uM GlcN6P; higher = faster cleavage; RNA array
Method in brief: as §1

glucosamine-6-phosphate [7] = variants of: B1; assay: self-cleavage kobs at 10000 uM GlcN6P; higher = faster cleavage; RNA array
Method in brief: as §1

| Variant | kcat (glucosamine-6-phosphate [1]) [s⁻¹] | KM (glucosamine-6-phosphate [2]) [µM] | self-cleavage kobs at 40 uM GlcN6P (glucosamine-6-phosphate [3]) [s⁻¹] | self-cleavage kobs at 160 uM GlcN6P (glucosamine-6-phosphate [4]) [s⁻¹] | self-cleavage kobs at 640 uM GlcN6P (glucosamine-6-phosphate [5]) [s⁻¹] | self-cleavage kobs at 2500 uM GlcN6P (glucosamine-6-phosphate [6]) [s⁻¹] | self-cleavage kobs at 10000 uM GlcN6P (glucosamine-6-phosphate [7]) [s⁻¹] |
| --- | --- | --- | --- | --- | --- | --- | --- |
| C16A G29A | 0.00235 ± 0.00058 | 1790 ± 630 | 7.39e-05 ± 1.3e-05 | 0.000175 ± 3.3e-05 | 0.000549 ± 9.9e-05 | 0.00127 ± 0.00024 | 0.00227 ± 0.00042 |
| A12C C61A | < 1e-05 | – | – | – | – | – | < 1e-05 |
| C11U U55A | 0.00167 ± 0.0004 | 1260 ± 470 | 6.97e-05 ± 1.2e-05 | 0.000177 ± 3.7e-05 | 0.000478 ± 9.1e-05 | 0.000891 ± 0.0002 | 0.0018 ± 0.00026 |
| C10G G62C | < 1e-05 | – | – | – | – | – | – |
| C16U A48U | 0.000375 ± 9.7e-06 | 2630 ± 150 | – | – | 7.24e-05 ± 1.5e-05 | 0.000181 ± 4.1e-05 | 0.000297 ± 3.3e-05 |
| G40A U56A | 0.00543 ± 0.0016 | 3080 ± 1300 | 9.01e-05 ± 2.5e-05 | 0.000256 ± 5.7e-05 | 0.00103 ± 0.00021 | 0.00192 ± 0.00042 | 0.00516 ± 0.0011 |
| A6G A39G | 0.00207 ± 0.0008 | – | – | 6.4e-05 ± 1.4e-05 | 0.000144 ± 2.7e-05 | 0.000791 ± 0.0001 | 0.00121 ± 0.00015 |
| A6U A39U | 0.000104 ± 2.7e-06 | 2160 ± 150 | – | – | 2.53e-05 ± 8.4e-06 | 5.5e-05 ± 7.8e-06 | 8.67e-05 ± 1.1e-05 |
| A6U A39G | 0.000267 ± 2.8e-05 | 5030 ± 1100 | – | – | – | 9.44e-05 ± 1.8e-05 | 0.000175 ± 2.6e-05 |
| G32C A39U | 6.89e-05 ± 3.3e-06 | 9270 ± 880 | – | – | – | – | 3.58e-05 ± 6.1e-06 |
| C68A C70U | 1.14e-05 ± 4.1e-06 | – | – | – | – | – | – |
| U30A U55G | 0.00534 ± 0.002 | – | 0.000142 ± 2.1e-05 | 0.000286 ± 5.5e-05 | 0.00138 ± 0.00022 | 0.00239 ± 0.00033 | 0.00586 ± 0.00095 |
| G40A A52G | 0.000342 ± 4.4e-05 | 1490 ± 450 | – | – | 0.000102 ± 1.6e-05 | 0.000251 ± 2.8e-05 | 0.000277 ± 3e-05 |
| A36C G59A | < 1e-05 | – | – | – | – | < 1e-05 | < 1e-05 |
| G13C A14U C68U | 1.07e-05 ± 1.2e-06 | – | – | – | – | – | – |
| G13C U47G | 3.48e-05 ± 2.1e-06 | – | < 1e-05 | – | – | – | 3.53e-05 ± 8.5e-06 |
| G32A G60A | < 1e-05 | – | < 1e-05 | < 1e-05 | < 1e-05 | – | – |
| C16U G37U | < 1e-05 | – | < 1e-05 | – | – | – | – |

| Variant | kcat (glucosamine-6-phosphate [1]) [s⁻¹] | KM (glucosamine-6-phosphate [2]) [µM] | self-cleavage kobs at 40 uM GlcN6P (glucosamine-6-phosphate [3]) [s⁻¹] | self-cleavage kobs at 160 uM GlcN6P (glucosamine-6-phosphate [4]) [s⁻¹] | self-cleavage kobs at 640 uM GlcN6P (glucosamine-6-phosphate [5]) [s⁻¹] | self-cleavage kobs at 2500 uM GlcN6P (glucosamine-6-phosphate [6]) [s⁻¹] | self-cleavage kobs at 10000 uM GlcN6P (glucosamine-6-phosphate [7]) [s⁻¹] |
| --- | --- | --- | --- | --- | --- | --- | --- |
| C10U U56A | 2.68e-05 ± 5.7e-06 | – | < 1e-05 | – | – | 3.47e-05 ± 1.4e-05 | – |
| A14U G35U | < 1e-05 | – | – | < 1e-05 | – | < 1e-05 | – |
| A14G C58U C61U | 1.33e-05 ± 2.7e-06 | – | < 1e-05 | – | – | – | – |
| A6G C68U | 0.000115 ± 2.9e-06 | 728 ± 79 | – | – | 5.56e-05 ± 1.1e-05 | 8.68e-05 ± 1.5e-05 | 0.000107 ± 1e-05 |
| G29U A48G | 1.1e-05 ± 1.6e-06 | – | – | – | – | – | – |
| G13A A64G | 0.0011 ± 0.0002 | 6920 ± 2200 | – | – | 0.000113 ± 2.2e-05 | 0.000246 ± 5e-05 | 0.000665 ± 6.7e-05 |
| A39U C71G | 0.00162 ± 0.00048 | 3300 ± 1600 | 4.48e-05 ± 8.3e-06 | 0.000107 ± 2e-05 | 0.00022 ± 2.8e-05 | 0.00066 ± 9.6e-05 | 0.00126 ± 0.00011 |
| C67G C70A | < 1e-05 | – | < 1e-05 | – | < 1e-05 | – | < 1e-05 |
| U31A C71A | 0.00261 ± 0.001 | – | 8.13e-05 ± 2.1e-05 | 0.000449 ± 0.00013 | 0.00049 ± 0.00015 | 0.00162 ± 0.00035 | 0.00252 ± 0.00057 |
| G13A G37U | 1.65e-05 ± 1.7e-06 | 621 ± 190 | < 1e-05 | – | – | – | < 1e-05 |
| U30G U31A | 0.0147 ± 0.001 | 914 ± 110 | 0.000631 ± 0.0002 | – | – | – | 0.0137 ± 0.0031 |
| G59A C68G | 1.72e-05 ± 2.3e-06 | – | – | – | – | – | – |
| G37A G66U | 0.000462 ± 0.00011 | 3940 ± 1500 | – | – | 5.56e-05 ± 1.3e-05 | 0.000217 ± 3.4e-05 | 0.000301 ± 6.5e-05 |
| A15U A64G | 0.00706 ± 0.00091 | 1990 ± 370 | 0.000142 ± 2.5e-05 | 0.00053 ± 0.0001 | 0.00182 ± 0.00029 | 0.00336 ± 0.00058 | 0.0066 ± 0.001 |
| U30C C67G C68A | 1.14e-05 ± 4e-06 | – | < 1e-05 | – | – | – | < 1e-05 |
| A42C C70G | 4.99e-05 ± 4.3e-06 | 1410 ± 550 | – | – | – | 3.37e-05 ± 7.9e-06 | 4.32e-05 ± 6.7e-06 |
| G7U G60A | < 1e-05 | – | – | – | < 1e-05 | < 1e-05 | < 1e-05 |
| U45G U55C | 0.00551 ± 0.00089 | 2350 ± 590 | 0.000129 ± 2.6e-05 | 0.000297 ± 5.2e-05 | 0.00131 ± 0.0002 | 0.00273 ± 0.00035 | 0.00455 ± 0.00058 |
